Measurements published in the RNAGym collection of RNA variant scans (doi:10.7554/elife.80360).

B1: HDV Ribozyme (parent)
chain: GGCCGGCAUGGUCCCAGCCUCCUCGCUGGCGCCGGCUGGGCAACAUUCCGAGGGGACCGUCCCCUCGGUAAUGGCGAAUGGGACCCA

Variants of: B1
Assay: self-cleavage, relative activity (ratio to wild type); higher = more cleavage; co-transcriptional

Variant | self-cleavage
GGCCGGCAUGGUCCCAGCCUCCUCGCUGGCGCCGGCUGGGCAACAUUCCAAGGGGACCGUCCCCUCGGUAAUGGCGAAUCGGACCCA [G50A G80C] | 0.284
GGCCGGCAUUGUCCCAGCCUCCUCGCUGGCGCCGGCUGGGCAACAUUCCAAGGGGACCGUCCCCUCGGUAAUGGCGAAUGGGACCCA [G10U G50A] | 0.62
GGCCGGCAUGGUCCCCGCCUCCUCGCUGGCGCCGACUGGGCAACAUUCCGAGGGGACCGUCCCCUCGGUAAUGGCGAAUGGGACCCA [A16C G35A] | 0.175
GGCCGGCAUGGUCCCAGCCUCCUCGCUGGCGCCGUCUGGGCAACAUUCCGAGGGGACCGUCCCCUCGGUAAUGGCGAAUGGUACCCA [G35U G82U] | 0.162
GGCCGGCAUGGUCCCAGCCUCCUCGGUGGCGCCGGCUGGGCAACAUUCCGUGGGGACCGUCCCCUCGGUAAUGGCGAAUGGGACCCA [C26G A51U] | 0.95
GGCCGGCAUGGUCCCAGCCUCCUCGCUGGCGCCGGCUGGGCUACAUUCCGAGGGGACCGUCGCCUCGGUAAUGGCGAAUGGGACCCA [A42U C62G] | 0.6
GGCCGGCAUGGUCCCAGCCUCCUCGCUGGCGCCGGCUGGGCAACAUUCCGAGGGGGCCGUCCCCUCGGUAAUGGCGAGUGGGACCCA [A56G A78G] | 0.615
GGCCGGCAUGGUCCCAGCCUCGUCGCUGGCGCCGGCUGGGCAACAUUCCGAGGGGACCGUCCCCUCGGUAAUGGCUAAUGGGACCCA [C22G G76U] | 0.089
GGCCGGCAUGGCCCCAGCCUACUCGCUGGCGCCGGCUGGGCAACAUUCCGAGGGGACCGUCCCCUCGGUAAUGGCGAAUGGGACCCA [U12C C21A] | 0.0573
GGCCGGCAUGGUCCCAGCCUCCUCGCUGGCGCCGGCUGGGCAACAUUACGAGGGGGCCGUCCCCUCGGUAAUGGCGAAUGGGACCCA [C48A A56G] | 1.2
GGCCGGCAUGGUCCCAGCCUCCUCGCUGGCGCCCGCUGGGCAACAUUCCGAGGGGACCGUCCCCUCGGUAAUGGCGAAUGGGACCCG [G34C A87G] | 0.089
GGCCGGCAUGGUCCCAGCCACCUCGCUGGCGCCGGCUGGGCAACAUUCCGAGGGGACCGUCCCCUCGGUAAUGGCGAAUGGGUCCCA [U20A A83U] | 0.0978
GGCCGGCAUGGUCCCAGCCUGCUCGCUGGCGCCGGCUGGGCAACAUUCCCAGGGGACCGUCCCCUCGGUAAUGGCGAAUGGGACCCA [C21G G50C] | 0.116
GGCCGGCAUGGUCCCAGCCUCCUCGCUGGCGCCGGCUGGGCACCAUUCCGAGGGGACCGUCCGCUCGGUAAUGGCGAAUGGGACCCA [A43C C63G] | 0.185
GGCCGGCAUGGUCCCAGCCUCCUCGCUGGCGCCGUCUGGGCAACAUUCCGAAGGGACCGUCCCCUCGGUAAUGGCGAAUGGGACCCA [G35U G52A] | 0.483
GGCCGGCAUGGUCCCAGCGUCCUCGCUGGCGCCGGCUGGGCAACAUUCCGAGGGGACCGUCCCCUCGGUAAUGGCGAAUGGGACCCC [C19G A87C] | 0.0849
GGCCGGCAUGGUCCCAGCCUCCUCGCUGGCGCCGGCUGGGCAACAUUCCGAGGGGACCGUCCCCUCGGUAAUGCCUAAUGGGACCCA [G74C G76U] | 0.175
GGGCGGCAUGGUCCCAGCCUCCUCGCUGGCGCCGGCUGGGCAACAUUCCGAGGGGACCGUCCCCUCGGUAAUGGCGGAUGGGACCCA [C3G A77G] | 0.237
GGCCGGCAUGGUCCCAGCCUCCUCGCUGGCGCCGGCUGGACAACAUUCCGAGGGGACCGUCCCCUCGGUAAUGGCGAAUGCGACCCA [G40A G81C] | 0.29
GGCCGGCAUGGUCCCAGCCUCCUCGCUAGCGCCGGCUGGGCGACAUUCCGAGGGGACCGUCCCCUCGGUAAUGGCGAAUGGGACCCA [G28A A42G] | 0.369
GGCCGGCAUGGUCCCAGCCUCCUCGCUGGCGUCGGCUGGGCAACAUUCCGAGGGGACCGUCCCCUCGGUAAUGGCGAAUGGGAUCCA [C32U C84U] | 0.763
GGCCGGCAUGGUCCCAGCCUCCUCGCUGGCGCCGGCUGGGCAACAUCCCGAGGGGACCGUCCCCUCGGUAAUGGCGAAUGGGACCCA [U47C] | 0.906

Variant | self-cleavage
GGCCGGCAUGGUCCCAGCCUCCUCGCUGGCGCCGGCUGGGCAACAUUCCGAGGGGACAGUCCCCUCGGUAAUGGCGAAAGGGACCCA [C58A U79A] | 0.789
GGCCGGCAUGGCCCCAGCCUCCUCGCUGGCGCCGGCUGGGCAACAUUCCGAGGGGACCGUCCCCUCGGUAAUGGAGAAUGGGACCCA [U12C C75A] | 0.166
GGCCGGCAUGGUCCCAGCCUCCUCGCUGGCGCCGGCUGGGCAACAUUCCGAGGGGACCGUCUCCUCGGUAAUGUCGAAUGGGACCCA [C62U G74U] | 0.679
GGCCGGCAUGGUCCCAGCCUCCUCGCUGGCGCCGGCUGGGCAACAUUGCGAGGGGACCGUACCCUCGGUAAUGGCGAAUGGGACCCA [C48G C61A] | 0.927
GGCCGGCAUCGUCCCAGCCUCCUCGCUGGCGCCGGCUGGGCAACAUUCCGAGGGGACCGUCCCCUCGGUAAUGGCGAAUGGAACCCA [G10C G82A] | 0.314
GGCCGGCAUGGUCCCAGCCUCCUCGCUGGCGCCGGCUGGGCAACAUUGCGAGGGGACCGUCCCCUCGGUAAUGGUGAAUGGGACCCA [C48G C75U] | 0.285
GGCCGGCAUGGUCCCAGCCUCCUCGCUGGAGCCGGCUGGGCAACAUUCCGAGGGGACCAUCCCCUCGGUAAUGGCGAAUGGGACCCA [C30A G59A] | 0.561
GGCCGGCAUGGUCCCAGCCUCCUCGCUGGCACCGGCUGGGCAACAUUCCGAGGGGACCGUCCCCUCGGUAAUGGCGAAUGGGAUCCA [G31A C84U] | 0.337
GGCCGGCAUGGUCCCAGCCUCCUCGCUGGCGCCGGCUGGGCAACAUUCCGAGGGGACCGUCCCCUCGGUACUGGCGAAUGGGACGCA [A71C C85G] | 0.554
GGACGGCAUAGUCCCAGCCUCCUCGCUGGCGCCGGCUGGGCAACAUUCCGAGGGGACCGUCCCCUCGGUAAUGGCGAAUGGGACCCA [C3A G10A] | 0.335
GGCCAGCAUGGUCCCAGCCUCCUCGCUGGCGCCGGCUGGGCAACAUUCCGAGGGGACCGUCCCCUCGGUAAUGGCGAAAGGGACCCA [G5A U79A] | 0.192
GGCCGGCAUGGUCCCAGCCUCCUCGCUGGUCCCGGCUGGGCAACAUUCCGAGGGGACCGUCCCCUCGGUAAUGGCGAAUGGGACCCA [C30U G31C] | 0.13
GGCCGGCAUGGUCCCAGCCUCCUCGCUGGCGCCGGCUGGGCAAGAUUCCGAGGGGACCGUCCCCUCGGUAAUGGCGAAUGGGAACCA [C44G C84A] | 0.394
GGCCGGCAUGGUCCCAGCCUCCUCGCUGGCGCCGGCUCGGCAACAUUCCGAGGGGACCGUCCCCUCGGUAAUGUCGAAUGGGACCCA [G38C G74U] | 0.0739
GGCCGGCAUGGUCCCAGCCUCCUCGCUGGCGCCGGCUUGGCAACAUUCCGAGGGGACCGUCCCCACGGUAAUGGCGAAUGGGACCCA [G38U U65A] | 0.292
GGCCGGCAUGGUCCCAGCCUCCUCGCUGGCGCCGGCUGGGCAACGUUCCGCGGGGACCGUCCCCUCGGUAAUGGCGAAUGGGACCCA [A45G A51C] | 0.987
GGCCGGCAUGGUCCCAGCCUCCUCGCUGUCGCCGGCUGGGCAACAUUCCGAGGGCACCGUCCCCUCGGUAAUGGCGAAUGGGACCCA [G29U G55C] | 0.0692
GGCCGGCAUGGUCCCAGCCUCCUCGCUGGCGCCGGCUGGGCAACAUUCCGAGGGGACCGUUCACUCGGUAAUGGCGAAUGGGACCCA [C61U C63A] | 0.758
GGCCGGCAAGGUCCCAGCCUCCUCGCUGGCGCCGGCUGGGCAACAUUCCGAGGGGACCGUCCCCUCGGUAUUGGCGAAUGGGACCCA [U9A A71U] | 0.688
GGCUGGCAUGGUCCCAGCCUCCUCGCUGGCGCCGGCUGGGCAACAUUCCGAGGGGACCGUCCCCUCGGUAAUGGCGAAUUGGACCCA [C4U G80U] | 0.0683
GGCCGGCAUGGUCCCAGCCUCCUCGCUGGCGCCGGCUGGGUAACAUUCCGAGGGGACCGUCCCCUCGGUAAUGGCGAAUGGGACCGA [C41U C86G] | 0.784
GGCCGGCAUGGUCCCAGCCUCCUCGCUGGCGACGGCUGGGCAACAUUCCGAGGGGACCGUCCCCUCGGAAAUGGCGAAUGGGACCCA [C32A U69A] | 0.0652

Variant | self-cleavage
CGCCGGCAUGGUCCCAGCCUCCUCGCUGGCGCCGGCUGGGCAACAUUACGAGGGGACCGUCCCCUCGGUAAUGGCGAAUGGGACCCA [G1C C48A] | 0.293
GGCCGGCAUGGUCCCAGCCUCCUCGCUGGCGCCGUCUGGGCAACAUUCCGAGGGGCCCGUCCCCUCGGUAAUGGCGAAUGGGACCCA [G35U A56C] | 0.358
GGCCGGCAUGGUCCCAGCCUCCUCGCUGGCGCCGGCUGGGCAACAUUCCGAGGGGACCGUCCCAUCGGUAUUGGCGAAUGGGACCCA [C64A A71U] | 0.855
GGCCGGCAUGGUCCCAGCAUCCUCGCUGGCGCCGGCUGGGCAACAUUCCGCGGGGACCGUCCCCUCGGUAAUGGCGAAUGGGACCCA [C19A A51C] | 0.0733
GGCCGGCAUGGUCGCACCCUCCUCGCUGGCGCCGGCUGGGCAACAUUCCGAGGGGACCGUCCCCUCGGUAAUGGCGAAUGGGACCCA [C14G G17C] | 0.0615
GGGCGGCAUGGUCCCAGCCUCCUCGCUGGCGCGGGCUGGGCAACAUUCCGAGGGGACCGUCCCCUCGGUAAUGGCGAAUGGGACCCA [C3G C33G] | 0.128
GGCCGGCAUGGUCCCAGCCUCCUCGCUGGCGCCGGCGGGGCAACAUUCCGUGGGGACCGUCCCCUCGGUAAUGGCGAAUGGGACCCA [U37G A51U] | 0
GGCCGGCAUGGUCCCAGCCUGCUCGCUGGCGCCGGCUUGGCAACAUUCCGAGGGGACCGUCCCCUCGGUAAUGGCGAAUGGGACCCA [C21G G38U] | 0.0702
GGCCGGCAUGGUCCCAGCCUCCUCGCUGACGCAGGCUGGGCAACAUUCCGAGGGGACCGUCCCCUCGGUAAUGGCGAAUGGGACCCA [G29A C33A] | 0.104
GGCCGGCAUGGUCCCAGCCUCCUCGCUGGCGCCGGCUGGGCAACAUUCCGAGGGGACCGUCCCCUCUGCAAUGGCGAAUGGGACCCA [G67U U69C] | 0.906
GGCCGGCAUGGUCCCAGCCACCUCGCUGGCGCCGGCUGGGCAAAAUUCCGAGGGGACCGUCCCCUCGGUAAUGGCGAAUGGGACCCA [U20A C44A] | 0.0573
GGCUGGCAUGGUCCCAGCCUCCUCGCUGGUGCCGGCUGGGCAACAUUCCGAGGGGACCGUCCCCUCGGUAAUGGCGAAUGGGACCCA [C4U C30U] | 0.332
GGCCGGCAUGGUCCCAGCCUCCUCGCUGGCGCCGGCGGGGCAACAUUCCCAGGGGACCGUCCCCUCGGUAAUGGCGAAUGGGACCCA [U37G G50C] | 0.185
GGCCGGCAUGGUCCCAGCCUCCUCGCUGGCGCCGGCUGGGCAACAUUCCGAGGGGACCGUCCCCUCGGUCAUGGCGCAUGGGACCCA [A70C A77C] | 0.244
GUCCGGCAUGGUCCCAGCCUCCUCGCUGGCGCCGGCUGGGCAACAUUCCGAGGGGACCGUCCCCUCGGUAUUGGCGAAUGGGACCCA [G2U A71U] | 0.0287
GCCCGGCAUGGUCCCAGCCUCCUCGCUGGCGCCGGCUGGGCAACAUUCCGAGGGGACCGUCCCCACGGUAAUGGCGAAUGGGACCCA [G2C U65A] | 0
GGCCGGCAUGGUCCCAGCCUCCUCGCUGGCGCCGGCUGGGCAACACUCCGAGGGGACCGUCCCCGCGGUAAUGGCGAAUGGGACCCA [U46C U65G] | 1.09
GGCCGGCAUGGUCCCAGCCUCCUCGCUGGCGCCGGCUGGGCAACAUUCCGAGGGUACCGUUCCCUCGGUAAUGGCGAAUGGGACCCA [G55U C61U] | 0.859
GGCCGGCAUGGUCCCAGCCUUCUCGCUGGCGACGGCUGGGCAACAUUCCGAGGGGACCGUCCCCUCGGUAAUGGCGAAUGGGACCCA [C21U C32A] | 0.0674
GGCCGGCAUGGUCCCAGCCUCCUCGCUGGCGCCGGCUGGGCAUCAUUCCGAGGGGACCGUCCCCUCGGUAAUGGCGAAUGGGGCCCA [A43U A83G] | 0.0986
